Values of other authors, collected in publication PMC6524963.
Where two headings read alike, the source gives them in different places.

Legend:
Ran (Homo sapiens) [1] = target: Ran (Homo sapiens) (UniProt P62826)
Ran (Homo sapiens) [2] = target: Ran (Homo sapiens) (UniProt P62826); remark: listed apart in the source

Kd (Ran (Homo sapiens) [1]): 0.001 µM
Kd (Ran (Homo sapiens) [2]): 10 µM
Substance: RanBP1/RanBP2 RBD RBD (from UniProt P43487)
